The data set has as its target VAMP2, native protein in rat brain detergent extracts (BDE) (UniProt P63045).
Sequence of UniProt P63045 (P63045 whole entry, looked up): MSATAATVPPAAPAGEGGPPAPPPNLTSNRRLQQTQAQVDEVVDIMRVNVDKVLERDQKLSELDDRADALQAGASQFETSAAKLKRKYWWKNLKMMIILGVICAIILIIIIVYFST

With “LC of BoNT/B (B-LC), residues 1-439, His6-tagged”, the “cleavage of SNARE proteins in rat brain detergent extracts (immunoblot)” value is on record as “abolishes the immunoblot signal of VAMP2”.

The values are drawn from US20190136216.
